Entries after “also recorded” stand apart in the source; their conditions may differ.

Here are results for one molecule from US20130252821A1, “METHODS AND COMPOSITIONS FOR THE TREATMENT AND DIAGNOSIS OF DISEASES CHARACTERIZED BY VASCULAR LEAK, HYPOTENSION, OR A PROCOAGULANT STATE” (Beth Israel Deaconess Medical Center, Inc., priority 2005, published 2013).

The test system of data set [1] is HMVEC monolayers. In words: Immunofluorescence of endothelial architecture (F-actin, VE-cadherin). Format: cell-based, human. To be noted: 10% patient serum plus 100 ng/ml recombinant human Ang-1. The procedure: HMVEC were grown to confluence on glass coverslips coated with 1% gelatin. The cells were fixed for 10 minutes in 4% paraformaldehyde in PBS, incubated for 5 min in 0.5% Triton X-100 in PBS. After blocking, the monolayers were processed for staining with anti-VE-cadherin monoclonal antibody (BD Pharmingen, San Diego, Calif.) and Alexa Fluoro 488 goat anti-mouse IgG, rhodamine phalloidin (Molecular Probe, Eugene, Oreg.) for F-actin staining and TOPRO-3-iodine (Molecular Probe) for nuclear staining. Fluorescence images were obtained using a Bio Rad MRC confocal fluorescence microscope. For human subject serum experiments, serum was diluted to 10% with EBM-2 and filtered with low protein binding PVDF membrane (0.22 μm, Millipore Corp) prior to application on endothelial cell monolayers.

Data set [2] has as its system myosin light chain (MLC) phosphorylation in HMVECs. In words: MLC phosphorylation assay (Western blot). Format: cell-based, human. The settings on record: Ang-1 100 ng/ml added. On the procedure: After signal starvation with 0.25% FBS EBM-2 for 24 h, cells were treated with 100 ng/ml Ang-2 or vehicle for 0, 1, 3, and 6 hours. Phosphorylated myosin light chain (MLC-p) (phospho-serine 19) and GAPDH were detected by Western blot analysis. For human subject serum effects on HMVECs, serum was diluted to 5% with EBM-2 and filtered with low protein binding PVDF membrane (0.22 μm, Millipore Corp, Bedford, Mass.). Anti-MLC-phospho-serine-19 Ab was obtained from Abcam Inc.

The test system of data set [3] is HMVEC-L monolayers. In words: Immunostaining of HMVEC-L bathed in HD IL-2 patient serum. The settings on record: 1:10 serum for 30 minutes, then Ang-1 100 ng/mL. Format: cell-based, human. On the procedure: Human pulmonary arterial microvascular endothelial cells (HMVECs) (Cambrex Bio Science, Walkersville, Md., United States) cells were cultured in EBM-2 (Cambrex Bio Science) supplemented with 5% fetal bovine serum (FBS) and growth factors according to the manufacturer's instructions. Serum starvation was performed by incubation in 0.25% FBS/EBM-2 for 24 hours.
HMVECs were grown to confluence on glass coverslips coated with 1% gelatin. The cells were fixed for 10 minutes in 4% paraformaldehyde in PBS, and incubated for 5 min in 0.5% Triton X-100 in PBS. After blocking, the monolayers were processed for staining with anti-VE-cadherin monoclonal antibody (BD Biosciences Pharmingen, San Diego, Calif., United States) and Alexa Fluor® 488 goat anti-mouse IgG, rhodamine phalloidin (Molecular Probes, Eugene, Oreg., […]) for F-actin staining and TOPRO-3-iodine (Molecular Probes) for nuclear staining. Fluorescence images were obtained using a Bio Rad MRC confocal fluorescence microscope. For experiments using cells treated with serum from patients, serum Ang-2 concentration was first measured by ELISA. Then, patient serum was diluted to 10% with EBM-2 and filtered with low-protein-binding PVL) F membrane (0.22 lm Millipore) prior to application on EC monolayers.

Data set [4] relates to RhoA. The data set can be described thus: Rho activity assay (pull-down) in HMVEC-L. Format: cell-based, human. The procedure: These were performed and quantified using the commercially available kit according to the manufacturer's instruction (Cytoskeleton, Denver, Colo.). After signal starvation, HMVEC-L were treated with vehicle, Ang-1 (100 ng/ml) with or without inhibitor for the indicated time and harvested with lysis buffer. Following a brief centrifugation to remove cell debris, lysates from the cells containing equivalent protein concentrations were incubated for 60 minutes with 40 μL slurry of a GST-fusion protein composed of Rac1 or RhoA effector proteins coupled to agarose beads. After washing with lysis buffer, samples were subjected to immunoblotting and detected with anti-Rac1 or anti-RhoA antibody (Santa Cruz Biotechnology, Santa Cruz, Calif.). Whole cell lysates were also run to determine the total amount of Rac1 or RhoA protein.

Data set [5] relates to HMVEC-L. In words: Immunohistochemistry of HMVEC-L (F-actin, MLC-P, VE-cadherin). Format: cell-based, human. On the procedure: HMVEC-L were grown to confluent on glass coverslips coated with 0.1% gelatin (Attachment factor, Cascade Biologics, Portland, Oreg.) in 5% FBS/EGM2. […] We used rhodamine phalloidin (Molecular Probe) for F-actin staining and TOPRO®-3-iodine (Molecular Probe) for nuclear staining. Fluorescence images were obtained using a Bio Rad MRC confocal fluorescence microscope.

Data set [6] concerns mice (female FVB strain), lung. In words: Lung histology after LPS. Format: in vivo, mouse. The settings on record: Ang-1 10 μg ip x 2 doses. The procedure:
Mice were treated as above and lungs were harvested, fixed in 10% formalin, embedded in paraffin, sectioned, and stained with hematoxilin and eosin. In Vivo Delivery of siRNA: Delivery of siRNA into mice was performed by TransIT® Hydrodynamic delivery solution (Mires, Madision, Wis.) per the manufacturer's instruction. Mice were injected with either 10 μg control siRNA or 10 μg p190RhoGAP siRNA in 2 nil delivery solution injected into the tail vein over 7 seconds. Four days later, p190RhoGAP knockdown was confirmed by lysing organs in RIPA buffer and performing Western analysis as outlined above. In vivo permeability and histological examination were performed as described above.

For data set [7], the system named is Tie2. In words: Tie2 phosphorylation by Ang-1 in HMVEC-L. Format: cell-based, human. To be noted: Ang-1 100 ng/ml, 15 minutes. The procedure: (§1) We lysed HMVEC-L with Triton buffer (50 mM Tris-HCl pH 8.0, 150 mM NaCl, 1% Triton X 100, and 5 mM EDTA) supplemented with protease inhibitors (Roche Diagnostics), 1 mM NaF and 1 mM Na3VO4, adjusting protein concentration by BCA protein assay (Pierce) and incubated 200 μg of total protein with anti-Tie2-Ab (clone Ab33, Upstate, Lake Placid, N.Y.) or p190RhoGAP Ab (Transduction laboratory, Lexington, Ky.) for 3 hours, followed by incubation with protein A sepharose (Zymed, San Francisco, Calif.) for 2 hours at 4° C. After washing the beads, proteins were eluted by heating in SDS-sample buffer and detected by immunoblotting with anti-phospho-tyrosine (clone 4G10, Upstate), anti-Tie-2 Ab, or anti-p190RhoGAP Ab.

Data set [8] concerns p85 subunit of PI3K. In words: PI3K activity assay (p85 phosphorylation ELISA). Format: cell-based, human. To be noted: Ang-1 100 ng/ml, 15 minutes. On the procedure: After signal starvation, HMVEC-L were treated with vehicle or Ang-1 (100 ng/ml) for 15 minutes. Total and phosphorylated p85 subunits of PI3K were quantified using a commercial enzyme-linked immunosorbent assay according to the manufacturer's instruction (Active Motif, Carlsbad, Calif.). Phosphorylated PI3K p85 subunit was corrected by total PI3K.
A general note: An ELISA detects its analyte on a solid surface through an enzyme-linked reagent.

Data set [9] has as its system p190RhoGAP. The data set can be described thus: p190RhoGAP phosphorylation in HMVEC-L. Format: cell-based, human. To be noted: Ang-1 100 ng/ml. The procedure:
as §1

B1: Ang-1: Human recombinant angiopoietin-1 purchased from R&D systems; Tie-2 agonist, endogenous Ang-2 antagonist (protein, listed as Homo sapiens)
chain: MTVFLSFAFLAAILTHIGCSNQRRSPENSGRRYNRIQHGQCAYTFILPEHDGNCRESTTDQYNTNALQRDAPHVEPDFSSQKLQHLEHVMENYTQWLQKLENYIVENMKSEMAQIQQNAVQNHTATMLEIGTSLLSQTAEQTRKLTDVETQVLNQTSRLEIQLLENSLSTYKLEKQLLQQTNEILKIHEKNSLLEHKILEMEGKHKEELDTLKEEKENLQGLVTRQTYIIQELEKQLNRATTNNSVLQKQQLELMDTVHNLVNLCTKEGVLLKGGKREEEKPFRDCADVYQAGFNKSGIYTIYINNMPEPKKVFCNMDVNGGGWTVIQHREDGSLDFQRGWKEYKMGFGNPSGEYWLGNEFIFAITSQRQYMLRIELMDWEGNRAYSQYDRFHIGNEKQNYRLYLKGHTGTAGKQSSLILHGADFSTKDADNDNCMCKCALMLTGGWWFDACGPSNLNGMFYTAGQNHGKLNGIKWHYFKGPSYSLRSTTMMIRPLDF
On to B1, for which, in data set [1], the “reversal of gap formation provoked by high Ang-2 sepsis serum” value is given as “reversed”. Moreover, the “effect on MLC phosphorylation caused by high Ang-2 serum (CE2)” value in data set [2] was “inhibited”. In addition, the “rescue of endothelial disruption by high Ang-2 HD IL-2 patient serum” value in data set [3] was “significant attenuation in stress fiber formation; also recorded: rescue effect of Ang-1 was confirmed”. In [4] (HMVEC-L treated with Ang-1), the RhoA activity result was “decreased 30 minutes after”. Besides, the “effect on endotoxin-induced RhoA activity” value in data set [4] (co-incubation with Ang-1) is “reversed”. In addition, the “cytoskeleton and junction staining compared to control cells” value in data set [5] (Ang-1, confluent HMVEC-L, 30 min) is “increase in cortical actin, peripheral MLC-P, and increased VE-cadherin staining at cell junctions”. Moreover, in [5] (endotoxin plus Ang-1), the “effect on endotoxin-induced structural derangements” value is reported as “reverted the endotoxin-induced derangements to a normal appearance”. Further, the “effect on LPS-induced edema and leukocyte infiltration” value in data set [6] was “reversed”. In data set [7], the Tie2 phosphorylation result is listed as “induces Tie2 phosphorylation”. In data set [8], the “phosphorylation of the p85 subunit of PI3K” value was “induces phosphorylation of the p85 subunit of PI3K”. In addition, in data set [9], the “phosphorylation of p190RhoGAP” value is given as “induces phosphorylation of p190RhoGAP”.
